Results on one substance are retold here after PMC12093947, “Cobalt modulates methanol turnover of the alcohol dehydrogenase in Desulfofundulus kuznetsovii strain TPOSR” (Applied and Environmental Microbiology, 2025).

The subject of this data set is NC(=O)c1ccc[n+]([C@@H]2O[C@H](COP(=O)(O)OP(=O)(O)OC[C@H]3O[C@@H](n4cnc5c(N)ncnc54)[C@H](O)[C@@H]3O)[C@@H](O)[C@H]2O)c1. Briefly: purified protein. As to conditions: without added Co, methanol 0.75-3000 mM, 50 mM Bis-tris propane, 55 °C, rapid-equilibrium, NAD+ binds first, brackets 95% confidence interval, varied: cofactor.

For the substance “TPOSR Adh1 (Desulfofundulus kuznetsovii)”, the Km was 0.550 [0.26, 1.3] mM and the catalytic constant (kcat) was determined as 1.76 s⁻¹.
